Laboratory results from patent US11078246B2, “Peptides binding to Bfl-1” (Dana-Farber Cancer Institute, Inc., priority 2015, dated 2021).

What was measured:
Assay type in all cases: binding
MCL-1 = molecular target: T1, MCL-1 (Homo sapiens, UniProt Q07820); assay: SA pull-down from A375P lysates, MCL-1 western; conditions: A375P lysate, biotinylated peptides
T1 construct: we incubated A375P lysates with the corresponding biotinylated BIM SAHBs; endogenous in cells; host or cells: A375P melanoma cell lysate
Experimental: (§1) 293T cells were maintained in DMEM containing 10% FBS and penicillin/streptomycin, and transfections performed with 2 μg pCMV plasmid containing HA-BFL-1ΔC C4S/C19S using X-tremeGENE 9 (Roche). For lysate experiments, cells were trypsinized 24 hours post-transfection, washed with PBS, and lysed by incubation with 1% CHAPS lysis buffer (150 mM NaCl, 50 mM Tris pH 7.4, 100 mM DTT). Protein concentration of the soluble fraction was measured using a BCA kit according to manufacturer's instructions (Thermo Scientific). […] Samples were then boiled in LDS buffer and subjected to western analysis using 1:1000 dilutions of HA (Sigma-Aldrich. #12CA5) and biotin (Abcam, #53494) antibodies. To evaluate the capacity of biotinylated SAHBs to compete with tBID for interactions with BFL-1 and MCL-1, 293T cells were transfected with either HA-BFL-1ΔC C4S/C19S or FLAG-MCL-1 in the p3XFLAG-CMV-10 vector (Sigma) as above. After 24 h, cells were trypsinized, washed with PBS, lysed in 1% CHAPS buffer, and the supernatant collected for protein concentration determination by BCA kit. […] The mixtures were then subjected to HA or FLAG (Sigma-Aldrich, F7425) immunoprecipitation, followed by western analysis using 1:1000 dilutions of HA, FLAG, biotin, and BID (Santa Cruz sc-11423) antibodies. […] Cells were harvested and lysed as above, and incubated overnight with anti-HA agarose beads (Pierce). […]

tBID/HA-BFL-1ΔC C4S/C19S = molecular target: T2, tBID/HA-BFL-1ΔC C4S/C19S (Homo sapiens, UniProt Q16548, C19S/C4S); assay: Competition with tBID in 293T lysates (HA immunoprecipitation); conditions: 5 μM biotinylated peptide, 0.25 μM tBID, 6 h
T2 construct: cDNA encoding BFL-1ΔC (aa 1-153) was cloned into the pET19b expression vector; expressed in transfected cells; host or cells: 293T
T2 sequence (Q16548 1-153 C4S/C19S): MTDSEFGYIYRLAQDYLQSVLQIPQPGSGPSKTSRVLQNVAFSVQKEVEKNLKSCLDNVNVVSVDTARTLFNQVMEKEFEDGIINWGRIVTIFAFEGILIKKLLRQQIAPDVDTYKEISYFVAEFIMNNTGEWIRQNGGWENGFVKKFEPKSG
Experimental: Protein concentration of the soluble fraction was measured using a BCA kit according to manufacturer's instructions (Thermo Scientific). […] After 24 h, cells were trypsinized, washed with PBS, lysed in 1% CHAPS buffer, and the supernatant collected for protein concentration determination by BCA kit. […] Cells were harvested and lysed as above, and incubated overnight with anti-HA agarose beads (Pierce). The beads were washed 3 times with lysis buffer, eluted by boiling in LDS buffer, and subjected to western analysis with HA and biotin antibodies. […] Biotin capture was accomplished by incubating the mixture with high-capacity SA agarose (Thermo Scientific) for 2 h at 4° C., followed by centrifugation and washing the pelleted beads with 3×1 mL lysis buffer.

tBID/FLAG-MCL-1 = molecular target: T3, tBID/FLAG-MCL-1 (Homo sapiens, UniProt Q07820); assay: Competition with tBID in 293T lysates (FLAG immunoprecipitation); conditions: 5 μM biotinylated peptide, non-covalent
T3 construct: expressed in transfected cells; host or cells: 293T
T3 sequence (Q07820 whole entry): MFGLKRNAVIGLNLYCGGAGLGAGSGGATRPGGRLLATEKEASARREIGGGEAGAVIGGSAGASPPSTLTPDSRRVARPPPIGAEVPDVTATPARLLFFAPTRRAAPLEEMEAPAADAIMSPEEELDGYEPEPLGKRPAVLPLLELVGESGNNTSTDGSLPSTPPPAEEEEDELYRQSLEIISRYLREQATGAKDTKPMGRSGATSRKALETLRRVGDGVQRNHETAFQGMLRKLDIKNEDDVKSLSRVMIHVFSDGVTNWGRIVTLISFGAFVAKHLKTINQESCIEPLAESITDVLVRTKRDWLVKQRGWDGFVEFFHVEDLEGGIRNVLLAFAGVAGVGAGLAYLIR
Experimental: as §1

In the case of “BIM SAHBA: stapled BIM BH3 peptide (aa 147-166) lacking the acrylamide-based warhead”, the “binding to MCL-1” value (MCL-1) is reported as “equivalent binding”, the “competition with tBID for HA-BFL-1 binding” value (tBID/HA-BFL-1ΔC C4S/C19S) is reported as “incapable of competing with tBID” and the “competition with tBID for FLAG-MCL-1” value (tBID/FLAG-MCL-1) is reported as “equally effective”.
